The results in this text go back to publication PMC4337239, “Polyol specificity of recombinant Arabidopsis thaliana sorbitol dehydrogenase studied by enzyme kinetics and in silico modeling” (Frontiers in Plant Science, 2015).

Assay in all cases: purified protein
Substrate in data set [1]: OC[C@@H](O)[C@@H](O)[C@H](O)[C@@H](O)CO
The class given is biochemical, Arabidopsis thaliana. As to conditions: 1.36 mM NAD+, 100 mM Tris-HCl pH 9, 25 °C, Michaelis-Menten fit.

Substrate in data set [2]: OC[C@@H](O)[C@H](O)[C@@H](O)CO
As to conditions: 1.36 mM NAD+, 100 mM Tris-HCl pH 9, 25 °C, fit with substrate inhibition.

Substrate in data set [3]: OC[C@@H](O)[C@@H](O)[C@@H](O)CO
As to conditions: 1.36 mM NAD+, 100 mM Tris-HCl pH 9, 25 °C, Michaelis-Menten fit.

B1: recombinant AtSDH (Arabidopsis thaliana) (protein)
chain: MGKGGMSQGEGSKVEEENMAAWLVGINTLKIQPFLLPSVGPHDVRVRMKAVGICGSDVHYLKTMRCADFVVKEPMVIGHECAGIIEEVGEEVKHLVVGDRVALEPGISCWRCNLCREGRYNLCPEMKFFATPPVHGSLANQVVHPADLCFKLPENVSLEEGAMCEPLSVGVHACRRAEVGPETNVLVMGAGPIGLVTMLAARAFSVPRIVIVDVDENRLAVAKQLGADEIVQVTTNLEDVGSEVEQIQKAMGSNIDVTFDCAGFNKTMSTALAATRCGGKVCLVGMGHGIMTVPLTPAAAREVDVVGVFRYKNTWPLCLEFLTSGKIDVKPLITHRFGFSQKEVEDAFETSARGSNAIKVMFNL
notes: full length 364 residues; N-terminal 6xHis tag cut off by TEV protease; pEXP5-NT/TOPO, cell-free in vitro expression (Expressway); oligomeric state not determined
Broadly, the Km is the substrate concentration at which the rate is half of its maximum. In general, kcat refers to the maximal rate divided by the concentration of active sites. The kcat/Km is the turnover number divided by the Michaelis constant. As for B1, the Michaelis constant (Km) in “purified protein [1]” stood at 960 ± 70 µM; in the data set “purified protein [2]” it was 270 ± 40 µM; in “purified protein [3]” it was 1050 ± 100 µM. The catalytic constant (kcat) in “purified protein [1]” amounted to 2.13 ± 0.03 s⁻¹; in the data set “purified protein [2]”, 2.12 s⁻¹; in the data set “purified protein [3]” it was 1.83 s⁻¹. The specificity constant (kcat/Km) in the data set “purified protein [1]” was 2230 ± 170 M⁻¹ s⁻¹; in the data set “purified protein [2]”, 7740 M⁻¹ s⁻¹; in the data set “purified protein [3]”, 1740 M⁻¹ s⁻¹.
